Measurements reported in publication PMC2600746.

Molecular target: GST-FoxK[414-654] (Drosophila melanogaster, UniProt A0JL24 414-654)
Test: competition EMSA

B1: GAS (dsDNA)
DNA 1: GCGTCTTTTCCGGGAAATACAT
DNA 2: ATGTATTTCCCGGAAAAGACGC
Does B1 bind?
Result: no binding
